Experimental data: PMC2118910

What was measured:
Experiment in all cases: cell-cell adhesion assay
[1] = molecular target: human CD8 alpha mutant M7 (human)
[2] = molecular target: human CD8 alpha mutant M4 (human) (UniProt P01732)
[3] = molecular target: human CD8 alpha mutant M3 (human)
[4] = molecular target: human CD8 alpha mutant M2 (human) (UniProt P01732)
[5] = molecular target: human CD8 alpha mutant M10 (human)
[6] = molecular target: human CD8 alpha mutant M5 (human) (UniProt P01732)
[7] = molecular target: human CD8 alpha mutant M9 (human) (UniProt P01732)
[8] = molecular target: mouse CD8 alpha (Lyt-2) (mouse) (UniProt P01731)
[9] = molecular target: human CD8 alpha mutant M6 (human)
[10] = molecular target: human CD8 alpha mutant M1 (human)
[11] = molecular target: human CD8 alpha mutant M8 (human) (UniProt P01732)

UniProt P01731, sequence (P01731 28-247): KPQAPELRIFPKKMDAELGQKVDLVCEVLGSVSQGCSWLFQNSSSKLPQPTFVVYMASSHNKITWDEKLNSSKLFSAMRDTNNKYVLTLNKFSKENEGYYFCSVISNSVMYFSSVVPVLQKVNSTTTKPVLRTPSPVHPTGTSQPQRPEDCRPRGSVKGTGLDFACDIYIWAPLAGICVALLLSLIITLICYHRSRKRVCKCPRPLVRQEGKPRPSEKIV

- percent binding relative to wild type [1]: 31.3%
- percent binding relative to wild type [2]: > 80%
- percent binding relative to wild type [3]: 13.5%
- percent binding relative to wild type [4]: 1.7%
- percent binding relative to wild type [5]: 42.6%
- percent binding relative to wild type [6]: 11%
- percent binding relative to wild type [7]: 56.9%
- percent binding relative to wild type [8]: -0.6 to 5.8%
- percent binding relative to wild type [9]: 49.1%
- percent binding relative to wild type [10]: 15.7%
- percent binding relative to wild type [11]: > 80%
Substance: HLA class I on the human B lymphoblastoid cell line UC
